Data: the supplement of paper PMC9876800

Test system: peptide library, one residue held at a place counted from the S/T acceptor
Test: relative phosphorylation of the sub-library (ratio to the mean residue at this position); higher = residue favoured
Conditions: human
Procedure, shortened: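 Relative sub-library phosphorylation is a ratio to the mean residue at the same position. Purified recombinant kinases were incubated under kinase-specific conditions with biotinylated degenerate peptide sub-libraries, each fixing one residue at one position around a central Ser/Thr, using 50 μM peptide and 50 μM ATP spiked with γ-32P-ATP for 90 min. Spots captured on streptavidin membranes were phosphorimaged and quantified by densitometry.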

Sequence of NUAK1, construct: Full length (O60285 whole entry, looked up): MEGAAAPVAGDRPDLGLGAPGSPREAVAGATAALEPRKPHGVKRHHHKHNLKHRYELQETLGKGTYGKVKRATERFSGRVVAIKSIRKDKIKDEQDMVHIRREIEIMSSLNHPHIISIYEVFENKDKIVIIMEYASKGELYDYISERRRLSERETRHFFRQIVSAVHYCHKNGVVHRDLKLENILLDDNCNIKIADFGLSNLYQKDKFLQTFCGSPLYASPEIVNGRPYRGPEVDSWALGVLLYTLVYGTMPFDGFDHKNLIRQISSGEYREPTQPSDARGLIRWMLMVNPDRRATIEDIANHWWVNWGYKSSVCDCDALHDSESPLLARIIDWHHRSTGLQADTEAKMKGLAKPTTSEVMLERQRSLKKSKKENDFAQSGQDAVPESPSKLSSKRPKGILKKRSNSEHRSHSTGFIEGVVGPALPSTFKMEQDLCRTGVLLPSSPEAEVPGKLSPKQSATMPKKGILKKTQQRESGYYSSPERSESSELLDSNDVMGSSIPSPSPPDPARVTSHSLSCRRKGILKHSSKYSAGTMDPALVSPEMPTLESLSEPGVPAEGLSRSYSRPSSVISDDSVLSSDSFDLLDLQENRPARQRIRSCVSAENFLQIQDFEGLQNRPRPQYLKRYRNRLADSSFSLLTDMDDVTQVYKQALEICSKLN
Sequence of CAMKK2, construct: Full length (Q96RR4 whole entry, looked up): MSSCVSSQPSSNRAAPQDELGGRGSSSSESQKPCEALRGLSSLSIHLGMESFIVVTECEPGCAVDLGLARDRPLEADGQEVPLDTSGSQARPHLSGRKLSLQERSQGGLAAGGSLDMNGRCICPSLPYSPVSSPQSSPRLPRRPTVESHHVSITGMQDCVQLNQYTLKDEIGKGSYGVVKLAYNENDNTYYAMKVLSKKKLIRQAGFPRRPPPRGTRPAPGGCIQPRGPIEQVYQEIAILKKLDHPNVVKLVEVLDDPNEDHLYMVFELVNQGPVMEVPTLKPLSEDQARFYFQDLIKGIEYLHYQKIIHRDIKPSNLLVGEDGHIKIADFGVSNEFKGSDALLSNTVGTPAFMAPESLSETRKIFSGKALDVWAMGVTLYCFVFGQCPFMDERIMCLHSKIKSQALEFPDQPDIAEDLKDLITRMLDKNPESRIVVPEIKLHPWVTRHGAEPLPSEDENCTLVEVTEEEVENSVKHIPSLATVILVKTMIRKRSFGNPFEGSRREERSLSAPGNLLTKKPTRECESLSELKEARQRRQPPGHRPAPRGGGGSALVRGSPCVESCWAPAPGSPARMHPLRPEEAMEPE

NUAK1, construct: Full length (from UniProt O60285)
relative phosphorylation
Conditions	at +1	at +2	at +3	at +4	at -1	at -2	at -3	at -4	at -5
A fixed	0.726	0.749	0.566	0.716	1.14	1.47	0.552	1.04	0.835
D fixed	0.449	0.564	0.844	0.464	0.661	0.734	0.4	0.474	0.611
E fixed	0.545	0.312	0.418	0.359	0.488	0.532	0.397	0.867	0.436
F fixed	2.2	0.695	1.33	1.13	0.475	0.586	0.472	0.91	1.12
G fixed	0.839	1.15	0.566	0.81	1.27	0.931	0.454	0.673	0.609
H fixed	0.927	1.14	1.56	1.08	0.951	0.821	1.12	0.995	0.772
I fixed	0.559	1.16	0.888	1.76	0.261	0.557	0.322	0.792	2.04
K fixed	1.19	1.09	1.22	1.01	2.27	0.955	2.72	1.16	1.2
L fixed	0.666	1.19	0.907	2.45	0.613	0.489	0.395	1.12	2.08
M fixed	1.1	1.17	1.08	1.69	0.937	0.837	0.598	1.56	1.33
N fixed	1.2	1.52	1.53	0.786	1.58	4.11	0.691	0.776	0.631
P fixed	0.483	0.753	0.434	0.765	1.63	0.53	0.665	0.929	0.727
Q fixed	1.72	0.954	1	0.743	1.37	1.51	0.786	0.934	0.582
R fixed	1.25	1.7	0.909	0.617	1.6	0.926	6.15	1.41	1.24
V fixed	0.687	1.02	0.735	0.947	0.375	0.864	0.288	0.924	1.21
W fixed	0.935	0.929	1.58	0.809	0.571	0.583	0.521	1.54	0.775
Y fixed	1.51	0.889	1.42	0.869	0.822	0.554	0.468	0.891	0.802
pThr fixed	0.684	0.497	0.396	0.362	0.291	0.397	0.352	0.518	0.373
pTyr fixed	0.597	0.273	0.337	0.346	0.746	0.419	0.445	0.438	0.547

CAMKK2, construct: Full length (from UniProt Q96RR4)
relative phosphorylation
Conditions	at +1	at +2	at +3	at +4	at -1	at -2	at -3	at -4	at -5
A fixed	1.16	0.999	0.931	0.783	1.27	0.476	1.17	0.993	1.31
D fixed	0.612	1.03	1.09	1.14	1.17	0.349	0.289	0.949	1.02
E fixed	0.647	0.701	0.995	0.774	1.24	0.313	0.317	0.905	0.843
F fixed	0.787	0.602	0.861	1.12	0.671	1.91	1.44	0.939	0.93
G fixed	0.848	1.24	1.36	1.09	0.731	0.434	0.846	1.11	1.29
H fixed	0.46	1.21	0.888	1.1	0.934	0.748	1.23	1.15	1.09
I fixed	1.27	0.734	0.702	0.589	0.46	0.558	0.672	0.481	0.529
K fixed	1.03	1.04	0.971	1.18	1.6	0.629	0.567	0.887	1.02
L fixed	1.1	0.786	0.783	0.953	0.974	2.57	0.981	0.762	0.561
M fixed	1.92	1.14	0.834	0.979	1.2	2.46	1.65	1.04	0.887
N fixed	1.02	1.4	1.22	0.991	1.15	0.594	0.66	0.95	0.917
P fixed	0.328	1.26	1.61	1.64	0.268	0.363	1.48	0.931	1.29
Q fixed	1.07	0.937	1.05	1.09	1.6	0.727	1.09	1.05	1.08
R fixed	1.18	1.32	1.04	0.852	1.65	0.885	0.856	1.11	1.21
V fixed	1.19	0.93	0.706	0.884	0.601	0.548	0.953	0.583	0.753
W fixed	1.22	0.742	0.971	0.981	0.693	0.873	1.48	1.79	1.25
Y fixed	1.18	0.927	0.988	0.861	0.786	2.56	1.32	1.37	1.02
pThr fixed	0.769	0.87	1.03	1.14	0.432	0.493	0.711	0.711	0.884
pTyr fixed	0.827	0.75	1.43	1.09	0.973	0.634	0.525	0.831	0.776

SRPK2, construct: Full length (from UniProt P78362)
relative phosphorylation
Conditions	at +1	at +2	at +3	at +4	at -1	at -2	at -3	at -4	at -5
A fixed	0.712	1.14	0.669	0.878	0.911	1.6	0.473	0.89	1.01
D fixed	0.338	1.38	0.556	0.992	0.577	2.3	0.364	0.723	0.669
E fixed	0.495	1.2	0.406	0.747	0.626	1.46	0.305	0.685	0.713
F fixed	0.35	1.12	0.427	0.715	0.468	0.64	0.265	0.697	0.971
G fixed	0.597	0.77	0.921	1.16	0.901	1.11	0.363	0.818	1.12
H fixed	0.663	1.01	0.699	1.11	1.6	1.56	0.44	1.11	1.15
I fixed	0.667	0.647	0.369	0.783	0.361	0.298	0.222	0.549	0.593
K fixed	1.6	2.02	1.29	1.51	2.2	0.995	0.918	1.71	1.75
L fixed	0.852	0.772	0.407	0.875	0.671	0.361	0.232	0.644	0.648
M fixed	0.839	0.547	0.383	0.794	0.693	0.538	0.288	0.719	0.754
N fixed	1.11	0.934	0.666	1.02	1.09	1.22	0.354	0.988	0.999
P fixed	4.58	1.22	1.72	1.06	1.44	0.822	0.347	1.84	0.758
Q fixed	1.08	0.939	0.687	1.07	1.66	0.714	0.528	0.956	0.834
R fixed	1.23	1.13	6.39	1.59	1.92	1.63	11	2.28	2.36
V fixed	1.07	0.976	0.442	0.815	0.726	0.449	0.246	0.696	0.769
W fixed	0.407	0.581	0.502	1.03	0.522	0.614	0.351	0.898	1.07
Y fixed	0.412	0.618	0.474	0.863	0.629	0.695	0.319	0.794	0.829
pThr fixed	0.513	0.839	0.67	0.956	0.411	0.555	0.363	0.65	0.55
pTyr fixed	0.696	0.733	0.646	0.951	0.763	1.09	0.45	1.25	0.809
